This experiment has as its target T1, HA-Fbxl5 (human (cDNA from A549 cells), UniProt Q9UKA1 1-691).
T1 sequence (looked up): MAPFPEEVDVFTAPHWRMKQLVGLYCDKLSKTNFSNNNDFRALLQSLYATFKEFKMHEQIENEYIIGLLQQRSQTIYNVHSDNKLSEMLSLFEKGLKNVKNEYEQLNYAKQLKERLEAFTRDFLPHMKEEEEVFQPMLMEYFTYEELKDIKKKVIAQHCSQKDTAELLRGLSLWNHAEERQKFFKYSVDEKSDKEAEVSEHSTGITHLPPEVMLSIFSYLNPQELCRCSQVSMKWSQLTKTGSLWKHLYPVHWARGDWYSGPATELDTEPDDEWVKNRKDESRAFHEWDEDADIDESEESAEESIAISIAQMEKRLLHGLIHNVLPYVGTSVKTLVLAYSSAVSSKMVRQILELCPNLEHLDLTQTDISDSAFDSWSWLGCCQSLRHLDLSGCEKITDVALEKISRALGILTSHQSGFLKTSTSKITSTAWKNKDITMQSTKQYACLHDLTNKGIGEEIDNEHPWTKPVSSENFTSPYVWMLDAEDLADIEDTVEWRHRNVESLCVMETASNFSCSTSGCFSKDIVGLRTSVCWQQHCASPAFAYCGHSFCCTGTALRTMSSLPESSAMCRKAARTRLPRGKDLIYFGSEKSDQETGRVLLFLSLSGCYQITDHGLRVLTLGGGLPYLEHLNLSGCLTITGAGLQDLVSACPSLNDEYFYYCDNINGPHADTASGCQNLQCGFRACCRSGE
As to the kind of experiment: pull-down.

B1: GST-hSSB1 (natural protein, human (cDNA from A549 cells), UniProt Q9BQ15 1-211, looked up)
chain: MTTETFVKDIKPGLKNLNLIFIVLETGRVTKTKDGHEVRTCKVADKTGSINISVWDDVGNLIQPGDIIRLTKGYASVFKGCLTLYTGRGGDLQKIGEFCMVYSEVPNFSEPNPEYSTQQAPNKAVQNDSNPSASQPTTGPSAASPASENQNGNGLSAPPGPGGGPHPPHTPSHPPSTRITRSQPNHTPAGPPGPSSNPVSNGKETRRSSKR
Consider B1, for which the binding result was “binds”.

These data come from publication PMC4191430 (Nucleic Acids Research, 2014).
